Assay results published in PMC5605669, “Dimerization regulates both deaminase-dependent and deaminase-independent HIV-1 restriction by APOBEC3G” (Nature Communications, 2017).

Tests used:
[1] = biological target: the molecule itself; experiment: cell-based or functional assay
[2] = biological target: the molecule itself; experiment: optical tweezers (single-molecule ssDNA extension); fraction of bound A3G that stays stably bound after washing with buffer, against incubation time (200 to 1000 s) at 50 nM; single exponential fit gives the oligomerization rate on ssDNA at 80 pN
[3] = biological target: the molecule itself; experiment: AFM imaging; 70 nM A3G incubated 10 min with linearized m13 ssDNA in 10 mM Tris, 2.5 mM NaCl; deposited on APTES coated mica, imaged in liquid; monomers per cluster on ssDNA from cluster volume

Protein	binding result [3]	further results
APOBEC3G, wild type (enzyme, human, UniProt Q9HC16 1-384, looked up) MKPHFRNTVERMYRDTFSYNFYNRPILSRRNTVWLCYEVKTKGPSRPPLDAKIFRGQVYSELKYHPEMRFFHWFSKWRKLHRDQEYEVTWYISWSPCTKCTRDMATFLAEDPKVTLTIFVARLYYFWDPDYQEALRSLCQKRDGPRATMKIMNYDEFQHCWSKFVYSQRELFEPWNNLPKYYILLHIMLGEILRHSMDPPTFTFNFNNEPWVRGRHETYLCYEVERMHNDTWVLLNQRRGFLCNQAPHKHGFLEGRHAELCFLDVIPFWKLDLDQDYRVTCFTSWSPCFSCAQEMAKFISKNKHVSLCIFTARIYDDQGRCQEGLRTLAEAGAKISIMTYSEFKHCWDTFVDHQGCPFQPWDGLDEHSQDLSGRLRAILQNQEN	–	deaminase activity on labeled 118-nt ssDNA after 3 min pre-incubation of 25 nM A3G with unlabeled 69-nt trap ssDNA (0.5 to 5 mM as printed), fold reduction (threefold to 13-fold) [1]: 13 fold
APOBEC3G F126A-W127A (NTD mutant) (enzyme, human, UniProt Q9HC16 1-384, looked up, APOBEC3G (A3G), human, with F126A and W127A in the N-terminal domain; The methods describe the making of A3G in general; also called FW; FW A3G; source: Sf9 cells (recombinant baculovirus), purified in the presence of RNase A) MKPHFRNTVERMYRDTFSYNFYNRPILSRRNTVWLCYEVKTKGPSRPPLDAKIFRGQVYSELKYHPEMRFFHWFSKWRKLHRDQEYEVTWYISWSPCTKCTRDMATFLAEDPKVTLTIFVARLYYAADPDYQEALRSLCQKRDGPRATMKIMNYDEFQHCWSKFVYSQRELFEPWNNLPKYYILLHIMLGEILRHSMDPPTFTFNFNNEPWVRGRHETYLCYEVERMHNDTWVLLNQRRGFLCNQAPHKHGFLEGRHAELCFLDVIPFWKLDLDQDYRVTCFTSWSPCFSCAQEMAKFISKNKHVSLCIFTARIYDDQGRCQEGLRTLAEAGAKISIMTYSEFKHCWDTFVDHQGCPFQPWDGLDEHSQDLSGRLRAILQNQEN	–	fold reduction of oligomerization rate against WT [2]: 3 fold
APOBEC3G R313A-D316A-D317A-Q318A (CTD mutant) (enzyme, human, UniProt Q9HC16 1-384, looked up, APOBEC3G (A3G), human, with R313A, D316A, D317A and Q318A in the C-terminal domain; The methods describe the making of A3G in general; also called RDDQ; RDDQ A3G; source: Sf9 cells (recombinant baculovirus), purified in the presence of RNase A) MKPHFRNTVERMYRDTFSYNFYNRPILSRRNTVWLCYEVKTKGPSRPPLDAKIFRGQVYSELKYHPEMRFFHWFSKWRKLHRDQEYEVTWYISWSPCTKCTRDMATFLAEDPKVTLTIFVARLYYFWDPDYQEALRSLCQKRDGPRATMKIMNYDEFQHCWSKFVYSQRELFEPWNNLPKYYILLHIMLGEILRHSMDPPTFTFNFNNEPWVRGRHETYLCYEVERMHNDTWVLLNQRRGFLCNQAPHKHGFLEGRHAELCFLDVIPFWKLDLDQDYRVTCFTSWSPCFSCAQEMAKFISKNKHVSLCIFTAAIYAAAGRCQEGLRTLAEAGAKISIMTYSEFKHCWDTFVDHQGCPFQPWDGLDEHSQDLSGRLRAILQNQEN	binds	–
APOBEC3G I314A-Y315A (CTD mutant) (enzyme, human, UniProt Q9HC16 1-384, looked up, APOBEC3G (A3G), human, with I314A and Y315A in the C-terminal domain; The methods describe the making of A3G in general; also called IY; IY A3G; source: Sf9 cells (recombinant baculovirus), purified in the presence of RNase A) MKPHFRNTVERMYRDTFSYNFYNRPILSRRNTVWLCYEVKTKGPSRPPLDAKIFRGQVYSELKYHPEMRFFHWFSKWRKLHRDQEYEVTWYISWSPCTKCTRDMATFLAEDPKVTLTIFVARLYYFWDPDYQEALRSLCQKRDGPRATMKIMNYDEFQHCWSKFVYSQRELFEPWNNLPKYYILLHIMLGEILRHSMDPPTFTFNFNNEPWVRGRHETYLCYEVERMHNDTWVLLNQRRGFLCNQAPHKHGFLEGRHAELCFLDVIPFWKLDLDQDYRVTCFTSWSPCFSCAQEMAKFISKNKHVSLCIFTARAADDQGRCQEGLRTLAEAGAKISIMTYSEFKHCWDTFVDHQGCPFQPWDGLDEHSQDLSGRLRAILQNQEN	binds	–
